The record followed here is patent publication US20250188189A1 (published 2025).

The chains are these.
B1: TPP-24869 (antibody, V domains shown)
VL: DIVMTQSPLSLPVTPGEPASISCRSSESVDSFGATFMHWYLQKPGQSPQLLIYLASNRASGVPDRFSGSGSGTDFTLKISRVEAEDVGVYYCQQNNEDPYTFGQGTKLEIK
B2: TPP-24907 (antibody, V domains shown)
VL: EIVLTQSPGTLSLSPGERATLSCRASQSVSSFGATFMHWYQQKPGQPPKLLIYLASNRASGVPDRFSGSGSGTDFTLTINPVEADDTANYYCQQNNEDPYTFGQGTKLEIK
B3: TPP-24847 (antibody, V domains shown)
VL: DIVLTQSPASLAVSPGQRATITCKASQSVSSFGATFMHWYLQKPGQSPQLLIYLASNLESGVPARFSGSGSGTDFTLTINPVEADDTANYYCQQNNEDPYTFGQGTKLEIK
B4: TPP-24851 (antibody, V domains shown)
VL: DIVLTQSPASLAVSPGQRATITCKASQSVSSFGATFMHWYLQKPGQSPQLLIYLASNRASGVPDRFSGSGSGTDFTLTINPVEADDTANYYCQQNNEDPYTFGQGTKLEIK
B5: TPP-24827 (antibody, V domains shown)
VL: DIVLTQSPASLAVSPGQRATITCKASESVDSFGATFMHWYQQKPGQPPKLLIYLASNRASGVPDRFSGSGSGTDFTLTINPVEADDTANYYCQQNNEDPYTFGQGTKLEIK
B6: TPP-24853 (antibody, V domains shown)
VL: DIVLTQSPASLAVSPGQRATITCKASQSVSSFGATFMHWYLQKPGQSPQLLIYLASNRASGVPDRFSGSGSGTDFTLKISRVEAEDVGVYYCQQNNEDPYTFGQGTKLEIK
B7: TPP-24841 (antibody, V domains shown)
VL: DIVLTQSPASLAVSPGQRATITCKASQSVSSFGATFMHWYQQKPGQPPKLLIYLASNLESGVPARFSGSGSGTDFTLKISRVEAEDVGVYYCQQNNEDPYTFGQGTKLEIK
B8: TPP-24843 (antibody, V domains shown)
VL: DIVLTQSPASLAVSPGQRATITCKASQSVSSFGATFMHWYQQKPGQPPKLLIYLASNRASGVPDRFSGSGSGTDFTLTINPVEADDTANYYCQQNNEDPYTFGQGTKLEIK
B9: TPP-24913 (antibody, V domains shown)
VL: EIVLTQSPGTLSLSPGERATLSCRASQSVSSFGATFMHWYLQKPGQSPQLLIYLASNLESGVPARFSGSGSGTDFTLKISRVEAEDVGVYYCQQNNEDPYTFGQGTKLEIK
B10: TPP-24897 (antibody, V domains shown)
VL: EIVLTQSPGTLSLSPGERATLSCRASESVDSFGATFMHWYLQKPGQSPQLLIYLASNLESGVPARFSGSGSGTDFTLKISRVEAEDVGVYYCQQNNEDPYTFGQGTKLEIK
B11: TPP-24911 (antibody, V domains shown)
VL: EIVLTQSPGTLSLSPGERATLSCRASQSVSSFGATFMHWYLQKPGQSPQLLIYLASNLESGVPARFSGSGSGTDFTLTINPVEADDTANYYCQQNNEDPYTFGQGTKLEIK
B12: TPP-24909 (antibody, V domains shown)
VL: EIVLTQSPGTLSLSPGERATLSCRASQSVSSFGATFMHWYQQKPGQPPKLLIYLASNRASGVPDRFSGSGSGTDFTLKISRVEAEDVGVYYCQQNNEDPYTFGQGTKLEIK
B13: TPP-24901 (antibody, V domains shown)
VL: EIVLTQSPGTLSLSPGERATLSCRASESVDSFGATFMHWYLQKPGQSPQLLIYLASNRASGVPDRFSGSGSGTDFTLKISRVEAEDVGVYYCQQNNEDPYTFGQGTKLEIK
B14: TPP-24893 (antibody, V domains shown)
VL: EIVLTQSPGTLSLSPGERATLSCRASESVDSFGATFMHWYQQKPGQPPKLLIYLASNRASGVPDRFSGSGSGTDFTLKISRVEAEDVGVYYCQQNNEDPYTFGQGTKLEIK
B15: TPP-24917 (antibody, V domains shown)
VL: EIVLTQSPGTLSLSPGERATLSCRASQSVSSFGATFMHWYLQKPGQSPQLLIYLASNRASGVPDRFSGSGSGTDFTLKISRVEAEDVGVYYCQQNNEDPYTFGQGTKLEIK
B16: TPP-24829 (antibody, V domains shown)
VL: DIVLTQSPASLAVSPGQRATITCKASESVDSFGATFMHWYQQKPGQPPKLLIYLASNRASGVPDRFSGSGSGTDFTLKISRVEAEDVGVYYCQQNNEDPYTFGQGTKLEIK
B17: TPP-24845 (antibody, V domains shown)
VL: DIVLTQSPASLAVSPGQRATITCKASQSVSSFGATFMHWYQQKPGQPPKLLIYLASNRASGVPDRFSGSGSGTDFTLKISRVEAEDVGVYYCQQNNEDPYTFGQGTKLEIK
B18: TPP-24861 (antibody, V domains shown)
VL: DIVMTQSPLSLPVTPGEPASISCRSSESVDSFGATFMHWYQQKPGQPPKLLIYLASNRASGVPDRFSGSGSGTDFTLKISRVEAEDVGVYYCQQNNEDPYTFGQGTKLEIK
B19: TPP-24875 (antibody, V domains shown)
VL: DIVMTQSPLSLPVTPGEPASISCRSSQSVSSFGATFMHWYQQKPGQPPKLLIYLASNRASGVPDRFSGSGSGTDFTLTINPVEADDTANYYCQQNNEDPYTFGQGTKLEIK
B20: TPP-29863 (antibody, V domains shown)
VH: EVQLVESGGGLVQPGGSLRLSCAASGFTFSNYYMNWVRQAPGKGLEWVSYISSSSSTIYYADSVKGRFTISRDDSKNSLYLQMNSLKTEDTAVYYCAREGDYFDYWGQGTLVTVSS
VL: EIVLTQSPGTLSLSPGERATLSCRASQRVSSFGATFMHWYQQKPGQPPKLLIYLASNRASGVPDRFSGSGSGTDFTLKISRVEAEDVGVYYCQQNNEDPYTFGQGTKLEIKR
B21: TPP-29866 (antibody, V domains shown)
VH: EVQLVESGGGLVQPGGSLRLSCAASGFTFSNYYMNWVRQAPGKGLEWVSYISSSSSPIYYADSVKGRFTISRDDSKNSLYLQMNSLKTEDTAVYYCAREGDYFDYWGQGTLVTVSS
VL: EIVLTQSPGTLSLSPGERATLSCRASQSVSSFGATFMHWYQQKPGQPPKLLIYLASNRASGVPDRFSGSGSGTDFTLKISRVEAEDVGVYYCQQNNEDPYTFGQGTKLEIKR
B22: TPP-29850 (antibody, V domains shown)
VH: EVQLVESGGGLVQPGGSLRLSCAASGFTFSNYYMNWVRQAPGKGLEWVSYISSSSSTIYYADSVKGRFTISRDDSKNSLYLQMNSLKTEDTAVYYCAREGDYFDYWGQGTLVTVSS
VL: EIVLTQSPGTLSLSPGERATLSCRASQSVSSFGATFMHWYQQKPGQPPKLLIYLASWRASGVPDRFSGSGSGTDFTLKISRVEAEDVGVYYCQQNNEDPYTFGQGTKLEIKR
B23: TPP-29865 (antibody, V domains shown)
VH: EVQLVESGGGLVQPGGSLRLSCAASGFTFSNYYFNWVRQAPGKGLEWVSYISSSSSTIYYADSVKGRFTISRDDSKNSLYLQMNSLKTEDTAVYYCAREGDYFDYWGQGTLVTVSS
VL: EIVLTQSPGTLSLSPGERATLSCRASQSVSSFGATFMHWYQQKPGQPPKLLIYLASNRASGVPDRFSGSGSGTDFTLKISRVEAEDVGVYYCQQNNEDPYTFGQGTKLEIKR
B24: TPP-29864 (antibody, V domains shown)
VH: EVQLVESGGGLVQPGGSLRLSCAASGFTFSNYYMNWVRQAPGKGLEWVSYISSSSSTIYYADSVKGRFTISRDDSKNSLYLQMNSLKTEDTAVYYCAREGDYFDYWGQGTLVTVSS
VL: EIVLTQSPGTLSLSPGERATLSCRASQSVSSFGATFMHWYQQKPGQPPKLLIYLASRRASGVPDRFSGSGSGTDFTLKISRVEAEDVGVYYCQQNNEDPYTFGQGTKLEIKR
B25: TPP-29853 (antibody, V domains shown)
VH: EVQLVESGGGLVQPGGSLRLSCAASGFTFSNYYMNWVRQAPGKGLEWVSYISSSSSTIYYADSVKGRFTISRDDSKNSLYLQMNSLKTEDTAVYYCAREGDYMDYWGQGTLVTVSS
VL: EIVLTQSPGTLSLSPGERATLSCRASQSVSSFGATFMHWYQQKPGQPPKLLIYLASNRASGVPDRFSGSGSGTDFTLKISRVEAEDVGVYYCQQNNEDPYTFGQGTKLEIKR
B26: TPP-26922 (antibody, V domains shown)
VH: EVQLVESGGGLVQPGGSLRLSCAASGFTFSNYYMSWVRQAPGKGLEWVGDIRLKSNNYEKHYAESVKGRFTISRDDSKNSLYLQMNSLKTEDTAVYYCAREGDYFDYWGQGTLVTVSS
VL: EIVLTQSPGTLSLSPGERATLSCRASQSVSSFGATFMHWYQQKPGQPPKLLIYLASNRASGVPDRFSGSGSGTDFTLKISRVEAEDVGVYYCQQNNEDPYTFGQGTKLEIKR
B27: TPP-29858 (antibody, V domains shown)
VH: EVQLVESGGGLVQPGGSLRLSCAASGFTFSNYYMNWVRQAPGKGLEWVSYISSSSSTIYYADSVKGRFTISRDDSKNSLYLQMNSLKTEDTAVYYCAREGDYFDYWGQGTLVTVSS
VL: EIVLTQSPGTLSLSPGERATLSCRASQSVSSFGATFMHWYQQKPGQPPKLLIYLARNRASGVPDRFSGSGSGTDFTLKISRVEAEDVGVYYCQQNNEDPYTFGQGTKLEIKR

The first assay deals with T1, plasma-derived human activated protein C (APC) (UniProt P04070 43-461).
T1 chain: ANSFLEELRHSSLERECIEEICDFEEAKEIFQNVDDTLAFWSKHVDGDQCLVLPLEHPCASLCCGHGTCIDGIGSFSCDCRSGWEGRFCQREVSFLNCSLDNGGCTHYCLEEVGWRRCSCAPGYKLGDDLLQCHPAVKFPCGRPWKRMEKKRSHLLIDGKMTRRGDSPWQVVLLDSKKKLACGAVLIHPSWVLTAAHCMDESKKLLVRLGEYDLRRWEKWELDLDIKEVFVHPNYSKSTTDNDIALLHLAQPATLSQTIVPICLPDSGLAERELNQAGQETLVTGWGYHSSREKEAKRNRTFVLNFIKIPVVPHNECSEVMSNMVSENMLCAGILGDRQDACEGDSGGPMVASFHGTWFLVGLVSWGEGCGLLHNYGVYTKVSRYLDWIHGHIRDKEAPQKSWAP
Put plainly: SPR. For orientation: SPR reads the build-up and loss of mass on a sensor chip optically.
In general, Kd refers to the free concentration of one partner at which half of the binding sites on the other are occupied at equilibrium, for simple one-to-one binding. Higher therefore signals lower affinity. Consider B1, for which the affinity, expressed as Kd, was 24.2 nM.

For the molecule B2, binding was put at a Kd of 45.9 nM.

Molecule B3 registered a Kd of 85.5 nM.

B4 returned a Kd of 49.8 nM.

Consider B5, for which binding was characterised by a dissociation constant (Kd) of 31.7 nM.

As to B6, the affinity, expressed as Kd, was 51.5 nM.

Turning to B7, the Kd was found to be 93.2 nM.

B8 returned a Kd of 48.6 nM.

B9 registered a Kd of 85.6 nM.

In turn, B10 yielded a Kd of 47.9 nM.

In turn, B11 returned a Kd of 43.2 nM.

For the molecule B12, the Kd stood at 46.2 nM.

As to B13, binding was put at a Kd of 26.9 nM.

The molecule B14 displayed a Kd of 28.6 nM.

The molecule B15 showed a Kd of 44.6 nM.

B16 displayed a Kd of 31.3 nM.

B17 had a Kd of 54 nM.

Consider B18, for which the Kd is 24.1 nM.

B19 yielded a Kd of 47.7 nM.

The next assay concerns the target T1, plasma-derived human activated protein …. Put plainly: SPR; head prints nM; kd/ka gives M.
The molecule B20 gave a Kd of 23.8 nM.

For the molecule B21, binding was characterised by a dissociation constant (Kd) of 22.2 nM.

Regarding B22, the Kd was 3.13 nM.

On to B23, for which binding was characterised by a dissociation constant (Kd) of 12.7 nM.

In the case of B24, the Kd is 10.4 nM.

In turn, B25 returned a dissociation constant (Kd) of 23.3 nM.

B26 registered a Kd of 91.7 nM.

As for B27, binding was put at a Kd of 24.9 nM.
